According to patent publication US20170342349A1, “STABILIZED ENZYME COMPOSITIONS” (NOVOZYMES A/S, priority 2014, published 2017):

Key:
[1] = Inhibitor binding assay of SEQ ID NO 6 variants, Inhibitor 1, in Model B detergent; assay type: biochemical; details: in Model B relative to SEQ ID NO 6; relative Ki, IF>1.0 = lower Ki
Excerpt: (§1) Where E is the protease, I is the inhibitor and EI is the protease-inhibitor complex. […] The concentration of enzyme-inhibitor in the detergent solution is then given by:
(§2) where Etot is the total protease concentration ([Etot]=[E]+[EI]), Itot is the total inhibitor concentration ([Itot]=[I]+[EI]), and Ki is the equilibrium binding constant for the reaction. The measured slopes V are given by:
(§3) where V0 is the slope without inhibitor added. To calculate apparent binding constant Ki least square fitting of measured slopes at various inhibitor concentrations to this equation is performed with Ki and V0 as variables.
(§4) Purified protease variants are pre-diluted to approximately 0.2 mg/ml in dilution buffer. The experimental conditions are described in Table 5 40 μl diluted protease is then mixed with 40 μl inhibitor solution Inhibitor 1 or 40 μl inhibitor 2 solution in the well of a 96 well microtiter plate (Nunc F 96-MTP). […] After 10 min mixing of protease and inhibitor at room temperature, 30 μl of the mixture is transferred to a microtiter plate (Nunc U96 PP 0.5 ml) with 270 μl Model B detergent (described in Table 1) in the wells resulting in inhibitor 1 concentrations of 0-30 μM and inhibitor 2 concentrations of 0-6000 μM. Protease, inhibitor and detergent is mixed for 1 hour using magnetic bars for 1 hour at room temperature to reach equilibrium. Then 20 μl is transferred to a microtiter plate (Nunc F 96-MTP). 100 μl substrate solution is added and after 5 sec mixing absorbance at 405 nm is measured every 20 sec for 5 min on a SpectraMax Plus reader. Slope from linear regression of initial increase in absorbance at 405 nm is used for calculation of apparent binding constants. Ki values were calculated according to the “Calculation of Ki” method described in “Materials and Methods”
(§5) Having the Ki for each variant, it is possible to calculate the effect of a single mutation, if data are available for at least two variants that differ only by that mutation. In this case, the relative Ki for the mutation (Improvement Factor, or IF) is calculated: […]

[2] = Inhibitor binding assay of SEQ ID NO 6 variants, Inhibitor 2, in Model B detergent; assay type: biochemical; details: in Model B relative to SEQ ID NO 6; relative Ki, IF>1.0 = lower Ki
Excerpt: as §1, §2, §3, §4, §5

| Molecule | inhibitor 1 binding constant improvement factors (IF) [1] | inhibitor 2 binding constant improvement factors (IF) [2] |
| --- | --- | --- |
| N60F + S100I: protease variant of SEQ ID NO 6 (protein, Protease C) AQSVPWGISRVQAPAAHNRGLTGSGVKVAVLDTGISTHPDLNIRGGASFVPGEPSTQDGFGHGTHVAGTIAALNNSIGVLGVAPSAELYAVKVLGASEGIGSVSSIAQGLEWAGNNGMHVANLSLGSPSPSATLEQAVNSATSRGVLVVAASGNSGAGSISYPARYANAMAVGATDQNNNRASFSQYGAGLDIVAPGVNVQSTYPGSTYASLNGTSMATPHVAGAAALVKQKNPSWSNVQIRNHLKNTATSLGSTNLYGSGLVNAEAATR | 11.26 |  |
| A164S: protease variant of SEQ ID NO 6 (protein, Protease C) AQSVPWGISRVQAPAAHNRGLTGSGVKVAVLDTGISTHPDLNIRGGASFVPGEPSTQDGNGHGTHVAGTIAALNNSIGVLGVAPSAELYAVKVLGASEGSGSVSSIAQGLEWAGNNGMHVANLSLGSPSPSATLEQAVNSATSRGVLVVAASGNSGAGSISYPSRYANAMAVGATDQNNNRASFSQYGAGLDIVAPGVNVQSTYPGSTYASLNGTSMATPHVAGAAALVKQKNPSWSNVQIRNHLKNTATSLGSTNLYGSGLVNAEAATR |  | 1.84 |

Results, then the molecule that gave them:

| inhibitor 1 binding constant improvement factors (IF) [1] | inhibitor 2 binding constant improvement factors (IF) [2] | Molecule |
| --- | --- | --- |
| 15.14 | 1.1 | S100I + L134V: protease variant of SEQ ID NO 6 (protein, Protease C) AQSVPWGISRVQAPAAHNRGLTGSGVKVAVLDTGISTHPDLNIRGGASFVPGEPSTQDGNGHGTHVAGTIAALNNSIGVLGVAPSAELYAVKVLGASEGIGSVSSIAQGLEWAGNNGMHVANLSLGSPSPSATVEQAVNSATSRGVLVVAASGNSGAGSISYPARYANAMAVGATDQNNNRASFSQYGAGLDIVAPGVNVQSTYPGSTYASLNGTSMATPHVAGAAALVKQKNPSWSNVQIRNHLKNTATSLGSTNLYGSGLVNAEAATR |
| 11.26 | 2.31 | S100I + Y166F: protease variant of SEQ ID NO 6 (protein, Protease C) AQSVPWGISRVQAPAAHNRGLTGSGVKVAVLDTGISTHPDLNIRGGASFVPGEPSTQDGNGHGTHVAGTIAALNNSIGVLGVAPSAELYAVKVLGASEGIGSVSSIAQGLEWAGNNGMHVANLSLGSPSPSATLEQAVNSATSRGVLVVAASGNSGAGSISYPARFANAMAVGATDQNNNRASFSQYGAGLDIVAPGVNVQSTYPGSTYASLNGTSMATPHVAGAAALVKQKNPSWSNVQIRNHLKNTATSLGSTNLYGSGLVNAEAATR |
